Measured values as given in the supplement of paper PMC9112550, “Optimization of the antimicrobial peptide Bac7 by deep mutational scanning” (BMC Biology, 2022).

Tested on: Escherichia coli TOP10
Assay: shrunken log2 fold change of peptide-encoding DNA abundance (4.5 h post-induction vs induction); higher = less antimicrobial activity (less host growth inhibition)
Conditions: time post-induction: 4.5 h; library: site-saturation at positions 5, 18, 19, 20
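Note: peptides expressed intracellularly from a pBAD plasmid library in pooled LB shake-flask culture, induced with 0.3% L-arabinose, DNA abundance read by NGS, three biological replicates, DESeq2 with apeglm shrinkage.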

Sequence	shrunken log2 fold change
RRIRMRPPRLPRPRPRPINYPRP	-0.22
RRIRDRPPRLPRPRPRPLEFPRP	-0.158
RRIRIRPPRLPRPRPRPSMGPRP	-0.222
RRIRSRPPRLPRPRPRPNNNPRP	-0.604
RRIRLRPPRLPRPRPRPRVFPRP	-0.0171
RRIRSRPPRLPRPRPRPYKQPRP	-0.62
RRIRNRPPRLPRPRPRPPYAPRP	0.161
RRIRLRPPRLPRPRPRPMQSPRP	0.0626
RRIRTRPPRLPRPRPRPHQWPRP	-0.196
RRIRMRPPRLPRPRPRPKFDPRP	0.217
RRIRFRPPRLPRPRPRPTVPPRP	0.341
RRIRVRPPRLPRPRPRPRDCPRP	2.64
RRIRIRPPRLPRPRPRPYMWPRP	-0.198
RRIRDRPPRLPRPRPRPTIPPRP	0.0494
RRIRYRPPRLPRPRPRPFYHPRP	-0.635
RRIRIRPPRLPRPRPRPGWAPRP	0.22
RRIRFRPPRLPRPRPRPVCQPRP	0.109
RRIRERPPRLPRPRPRPRWIPRP	1.93
RRIRARPPRLPRPRPRPATIPRP	0.496
RRIRRRPPRLPRPRPRPNDLPRP	-0.0791
RRIRERPPRLPRPRPRPGNKPRP	-0.00852
RRIRYRPPRLPRPRPRPWSSPRP	0.0132
RRIRHRPPRLPRPRPRPGMRPRP	0.163

Sequence	shrunken log2 fold change
RRIRFRPPRLPRPRPRPCKAPRP	-0.0248
RRIRARPPRLPRPRPRPVECPRP	0.0527
RRIRCRPPRLPRPRPRPDNNPRP	-0.661
RRIRSRPPRLPRPRPRPEYGPRP	-0.346
RRIRTRPPRLPRPRPRPDTLPRP	0.00154
RRIRPRPPRLPRPRPRPNGYPRP	-0.224
RRIRDRPPRLPRPRPRPFPHPRP	-0.303
RRIRWRPPRLPRPRPRPCSNPRP	-0.0711
RRIRLRPPRLPRPRPRPIIQPRP	-0.439
RRIRGRPPRLPRPRPRPMGPPRP	0.846
RRIRHRPPRLPRPRPRPPPVPRP	0.658
RRIRARPPRLPRPRPRPLNLPRP	0.0866
RRIRWRPPRLPRPRPRPDASPRP	0.364
RRIRERPPRLPRPRPRPVHGPRP	-0.152
RRIRYRPPRLPRPRPRPHRTPRP	-0.527
RRIRLRPPRLPRPRPRPCGHPRP	-0.0228
RRIRMRPPRLPRPRPRPLGWPRP	1.32
RRIRNRPPRLPRPRPRPHHHPRP	-0.617
RRIRGRPPRLPRPRPRPSALPRP	1.38
RRIRPRPPRLPRPRPRPVFTPRP	-0.0534
RRIRTRPPRLPRPRPRPHSIPRP	-0.0668
RRIRLRPPRLPRPRPRPISFPRP	-0.158
RRIRVRPPRLPRPRPRPQLAPRP	0.402

Sequence	shrunken log2 fold change
RRIRGRPPRLPRPRPRPKATPRP	1.52
RRIRDRPPRLPRPRPRPWTNPRP	-0.111
RRIRSRPPRLPRPRPRPNYLPRP	-0.071
RRIRHRPPRLPRPRPRPGGGPRP	0.684
RRIRQRPPRLPRPRPRPFCYPRP	-0.264
RRIRMRPPRLPRPRPRPDSWPRP	1.59
RRIRVRPPRLPRPRPRPQCYPRP	-0.189
RRIRVRPPRLPRPRPRPQDGPRP	-0.00098
RRIRVRPPRLPRPRPRPDFVPRP	-0.0423
RRIRERPPRLPRPRPRPDAHPRP	-0.308
RRIRKRPPRLPRPRPRPTYTPRP	0.475
RRIRLRPPRLPRPRPRPPKAPRP	0.025
RRIRIRPPRLPRPRPRPTNFPRP	-0.535
RRIRYRPPRLPRPRPRPTTPPRP	-0.437
RRIRGRPPRLPRPRPRPCDIPRP	-0.00533
RRIRLRPPRLPRPRPRPHRNPRP	-0.319
RRIRTRPPRLPRPRPRPGVNPRP	-0.0412
RRIRWRPPRLPRPRPRPWMNPRP	-0.287
RRIRGRPPRLPRPRPRPTEKPRP	0.455
RRIRCRPPRLPRPRPRPVEDPRP	-0.0221
RRIRDRPPRLPRPRPRPDPYPRP	0.00859
RRIRRRPPRLPRPRPRPFTVPRP	-0.118
RRIRSRPPRLPRPRPRPWVHPRP	-0.221

Sequence	shrunken log2 fold change
RRIRFRPPRLPRPRPRPQNSPRP	-0.568
RRIRLRPPRLPRPRPRPFGWPRP	0.0538
RRIRERPPRLPRPRPRPYILPRP	-2.27
RRIRGRPPRLPRPRPRPHFTPRP	0.233
RRIRERPPRLPRPRPRPGTQPRP	-0.0335
RRIRKRPPRLPRPRPRPPYNPRP	-0.149
RRIRPRPPRLPRPRPRPYNSPRP	-0.55
RRIRMRPPRLPRPRPRPDDVPRP	-0.00192
RRIRYRPPRLPRPRPRPETHPRP	-0.863
RRIRVRPPRLPRPRPRPCDPPRP	-0.107
RRIRVRPPRLPRPRPRPPHGPRP	-0.317
RRIRIRPPRLPRPRPRPVALPRP	-0.278
RRIRGRPPRLPRPRPRPWGGPRP	0.808
RRIRVRPPRLPRPRPRPKDPPRP	-0.106
RRIRERPPRLPRPRPRPFMQPRP	-0.178
RRIRCRPPRLPRPRPRPHQVPRP	-0.288
RRIRFRPPRLPRPRPRPLAVPRP	0.249
RRIRMRPPRLPRPRPRPCEEPRP	0.0566
RRIRGRPPRLPRPRPRPNDTPRP	0.188
RRIRVRPPRLPRPRPRPNTLPRP	-0.478
RRIRCRPPRLPRPRPRPWHTPRP	-0.261
RRIRYRPPRLPRPRPRPDLSPRP	-0.025
